We go through 2 molecules from article doi:10.1101/2023.04.25.538284 (bioRxiv, 2023).

The assay concerns the target T1, His-MBP-SIZ1-C (Arabidopsis thaliana, UniProt Q680Q4-3 435-873).
T1 sequence (looked up): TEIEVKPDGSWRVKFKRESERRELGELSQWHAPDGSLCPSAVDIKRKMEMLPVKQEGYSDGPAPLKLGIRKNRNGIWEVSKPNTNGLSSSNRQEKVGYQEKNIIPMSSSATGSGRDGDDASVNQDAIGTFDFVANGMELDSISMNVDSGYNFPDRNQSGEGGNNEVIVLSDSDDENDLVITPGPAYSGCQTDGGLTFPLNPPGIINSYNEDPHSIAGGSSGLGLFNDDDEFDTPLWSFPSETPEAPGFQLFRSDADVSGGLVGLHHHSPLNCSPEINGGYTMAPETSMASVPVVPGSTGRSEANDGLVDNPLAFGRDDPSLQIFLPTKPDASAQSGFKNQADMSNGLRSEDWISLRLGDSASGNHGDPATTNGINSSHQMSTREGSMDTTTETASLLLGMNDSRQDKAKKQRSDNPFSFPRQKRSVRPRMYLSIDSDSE
In words: pull-down.

B1: GST-SnRK2.4 (enzyme, Arabidopsis thaliana, UniProt P43291 1-363, looked up)
chain: MDKYELVKDIGAGNFGVARLMKVKNSKELVAMKYIERGPKIDENVAREIINHRSLRHPNIIRFKEVVLTPTHLAIAMEYAAGGELFERICSAGRFSEDEARYFFQQLISGVSYCHAMQICHRDLKLENTLLDGSPAPRLKICDFGYSKSSLLHSRPKSTVGTPAYIAPEVLSRREYDGKMADVWSCGVTLYVMLVGAYPFEDQEDPKNFRKTIQKIMAVQYKIPDYVHISQDCKNLLSRIFVANSLKRITIAEIKKHSWFLKNLPRELTETAQAAYFKKENPTFSLQTVEEIMKIVADAKTPPPVSRSIGGFGWGGNGDADGKEEDAEDVEEEEEEVEEEEDDEDEYDKTVKEVHASGEVRIS
B1: the binding result was “binds”.

B2: GST-SnRK2.6 (enzyme, Arabidopsis thaliana, UniProt Q940H6 1-362, looked up)
chain: MDRPAVSGPMDLPIMHDSDRYELVKDIGSGNFGVARLMRDKQSNELVAVKYIERGEKIDENVKREIINHRSLRHPNIVRFKEVILTPTHLAIVMEYASGGELFERICNAGRFSEDEARFFFQQLISGVSYCHAMQVCHRDLKLENTLLDGSPAPRLKICDFGYSKSSVLHSQPKSTVGTPAYIAPEVLLKKEYDGKVADVWSCGVTLYVMLVGAYPFEDPEEPKNFRKTIHRILNVQYAIPDYVHISPECRHLISRIFVADPAKRISIPEIRNHEWFLKNLPADLMNDNTMTTQFDESDQPGQSIEEIMQIIAEATVPPAGTQNLNHYLTGSLDIDDDMEEDLESDLDDLDIDSSGEIVYAM
Consider B2, for which the binding result was “binds”.
